Measurements reported in patent publication US20140120109A1 (Regeneron, published 2014).

T1: human TL1A, soluble, CHO-expressed, residues 72-251 of SEQ ID NO:244 with N-terminal His6-tag (human, UniProt O95150 72-251)
T1 construct: also called hTL1A; hTL1A (CHO)
T1 sequence: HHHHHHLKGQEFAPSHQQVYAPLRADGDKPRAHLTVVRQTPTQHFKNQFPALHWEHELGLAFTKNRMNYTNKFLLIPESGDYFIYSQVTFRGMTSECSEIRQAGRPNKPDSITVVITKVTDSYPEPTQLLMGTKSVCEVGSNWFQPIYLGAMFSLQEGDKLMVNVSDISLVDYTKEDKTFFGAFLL

T2: Fhm, hTL1A(Q167R), soluble, CHO-expressed, residues 72-251 of SEQ ID NO:246 (human, UniProt O95150 72-251)
T2 construct: also called Fhm (CHO); FHM (CHO)
T2 chain: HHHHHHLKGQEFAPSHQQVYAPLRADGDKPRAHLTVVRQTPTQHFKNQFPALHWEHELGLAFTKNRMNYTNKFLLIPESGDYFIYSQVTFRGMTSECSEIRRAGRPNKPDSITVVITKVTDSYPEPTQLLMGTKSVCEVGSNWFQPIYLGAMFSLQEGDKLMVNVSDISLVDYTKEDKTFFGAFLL

T3: full length human TL1A expressed on HEK293 cells (human, UniProt O95150 1-251)
T3 construct: also called HEK293/hTL1A; cell-surface hTL1A
T3 sequence: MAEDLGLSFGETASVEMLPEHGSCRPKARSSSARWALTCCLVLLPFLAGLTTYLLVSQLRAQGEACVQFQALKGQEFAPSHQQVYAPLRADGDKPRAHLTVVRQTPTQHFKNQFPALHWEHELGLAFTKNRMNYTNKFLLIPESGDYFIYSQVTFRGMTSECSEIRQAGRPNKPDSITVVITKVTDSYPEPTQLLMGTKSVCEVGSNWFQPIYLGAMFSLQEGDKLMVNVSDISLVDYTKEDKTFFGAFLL


Tests used:
[1] = target: T1, human TL1A, soluble, CHO-expressed, …; assay: SPR 37C, mAb captured; kd set at 1e-6 1/s
Method: Measurements were conducted on a T100 BIACORE™ instrument. […] Kinetic association (kₐ) and dissociation (kd) rate constants were determined by fitting the data to a 1:1 binding model using BIAevaluation 4.1 curve fitting software (BIAcore Life Sciences). Molar concentrations of TL1A/Fhm used in the data fitting assumed a monomeric state for TL1A in solution. Binding dissociation equilibrium constants (KD) and dissociative half-lives (t_{1/2}) were calculated from the kinetic rate constants as: KD (M)=kd/kₐ; and t_{1/2} (min)=[In2/(60*kd)].

[2] = target: T2, Fhm, hTL1A(Q167R), soluble, …; assay: ELISA, blocks FHM (10 pM) binding hDcR3-Fc
Method: (§1) The ability of antibodies to block human TL1A binding to its cognate receptors, the DR3 and DcR3 receptors, was measured using a competition sandwich ELISA. In addition, blocking of a human TL1A variant FHM (human TL1A Q167R) and the cynomolgus monkey (Macaca fascicularis) TL1A (MfTL1A) protein binding to the human DR3 or DcR3 receptors was measured in the same manner. Constant amounts of biotinylated human TL1A or FHM (both expressed with a 6-His tag in CHO cells) or biotinylated MfTL1A (expressed in CHO cells) were separately titrated with varying amounts of antibodies. The antibody-protein complexes were incubated in solution (1 hr, 25° C.) and then transferred to microtiter plates coated with human DR3 (hDR3) or human DcR3 (hDcR3) expressed as human IgG1 Fc fusion proteins. After one hour at 25° C. the wells were washed, and bound human or monkey TL1A was detected with streptavidin conjugated with horseradish peroxidase (HRP). Wells were developed with a TMB solution to produce a colorimetric reaction and quenched with aqueous sulfuric acid before reading absorbance at 450 nm on a Perkin-Elmer Victor X5 plate reader. A sigmoidal dose-response curve was fit to the data using the Prism™ data analysis package. […] Both fully human anti-hTL1A mAbs and comparator antibodies, i.e., control mAb1 (an anti-hTL1A antibody with heavy and light chain variable domains having the amino acid sequences corresponding to SEQ ID NOS:21 and 27, respectively, of US 2009/0280116) and control mAb3 (an anti-hTL1A antibody with heavy and light chain variable domains having the amino acid sequences corresponding to SEQ ID NOS:57 and 48, respectively, of US 2009/0280116), were included in the study. NB: No binding under the conditions tested; NT: Not tested. Concentrations of biotinylated soluble ligands: (1) 150 pM; (2) 500 pM; (3) 10 pM; and (4) 50 pM.

[3] = target: T2, Fhm, hTL1A(Q167R), soluble, …; assay: ELISA, blocks FHM (150 pM) binding hDR3-Fc
Method: as §1

[4] = target: T3, full length human TL1A expressed on …; assay: flow, HEK293/hTL1A, mAb 0.1 ug/ml + 0.03 ug/ml soluble hTL1A
Method: Human embryonic kidney 293 cells stably transfected to over-express cell-surface hTL1A were first stained in a flow cytometric experiment with eight anti-hTL1A antibodies at four concentrations (1, 0.1, 0.01, and 0.003 μg/ml). […] The lowest antibody concentration providing significant staining levels was then used in a competition binding experiment. A negative isotype control antibody (human IgG4) was used at 1 μg/ml to define the background signal. For the competition experiment, eight antibody samples, at the minimal concentrations identified above, were first treated with soluble hTL1A expressed from CHO cells at concentrations ranging from 0.03 μg/ml to 10 μg/ml. After pre-incubation for 30 min on ice, the antibody/hTL1A mixture was added to 293/HEK-hTL1A cells that had been isolated by centrifugation in a 96-well conical plate. After incubation for an additional 10 minutes on ice, the cells were washed. The secondary reagent, anti-h Fcγ-APC F(ab′)₂, was added to all wells at a 200-fold dilution to detect bound antibodies. Samples were incubated for 15 minutes on ice, away from light, and then washed. Cells were processed on an BD™ LSR II Flow Cytometer (BD Biosciences) to detect anti-hTL1A antibodies bound to the cell surface, and data were analyzed using FlowJo software (version 8.8.6; Tree Star Inc.). Maximum signal: Anti-hTL1A antibody binding in the absence of soluble hTL1A; Minimum signal: Signal recorded when […] of isotype control antibody was added in place of the anti-hTL1A antibody. NT: Not tested.

Kd [1] [pM] | t1/2 [1] [h] | IC50 [2] [pM] | IC50 [3] [pM] | MFI [4] | Binder
≤ 1 | ≥ 192 | 170 | 44 | 163 | H4H1704N (antibody, human IgG4 S228P, V domains shown, human IgG4(S108P) form of H2M1704N) VH: EVQLVESGGGLVQPGGSLRLSCAVSGFTFSSYWMSWVRQAPGKGLEWVANIKEDGSEKNYVDSVKGRFTLSSDNAKNSLYLQMNSLRAEDTAVYYCAREDYDSYYKYGMDVWGQGTAVIVSS VL: not shown
– | – | 85 | 44 | – | H4H1745P (antibody, human IgG4 S228P, V domains shown) VH: EVQLVESGGGLVQPGGSLRLSCAASGFTFSSYAMTWVRQAPGKGLEWVSGVSGRGGSTYYADSVKGRFTISRDNSKNTLYLQMNSLRAEDTAVYYCAYWDISSFDYWGQGTLVTVSS VL: DIQLTQSPSFLSASVGDRVTITCWASQGISTYLAWYQQKPGKTPKLLIYAASTLQSGVPSRFSGSGSGTDFTLTISSLQPEDFATYYCQQFNSYPLTFGGGTKVEIK
– | – | – | – | 126 | H4H1804N (antibody, human IgG4 S228P, V domains shown, human IgG4(S108P) form of H2M1804N) VH: QVQLHQWGAGLLKPSETLSLTCAVSGVSFSDYHWAWIRQSPGKGLEWIGDINHRGRTNYNPSLKSRVTISLDTSGNPFSLKLTSVTAADTAVYYCARDFPNWVFDSWGQGILVTVSS VL: EIVLSQSPGTLSLSPGERATLSCRASQSVSSSFLAWYQQYPGQAPRLLIYGASRRATGIPDRFRGSGSGTDFTLTISRLEPEDFAVYYCQQYGSSPLTFGGGTKVENK
– | – | – | – | 156 | H4H1805N (antibody, human IgG4 S228P, V domains shown, human IgG4(S108P) form of H2M1805N) VH: QVQLQQWGAGLLKPSETLSLTCAVYGGSFTGFYWSWIRQPPGKGLEWIGEINHRGNTNYNPSLKSRVTMSVDTSKNQFSLNMISVTAADTAMYFCASPFYDFWSGSDYWGQGTLVTVSS VL: DIMLTQTPLTSPVTLGQPASISCKSSQSLVHSDGNTYLSWLQQRPGQPPRLLFYKISNRFSGVPDRFSGSGAGTDFTLKISRVEAEDVGVYYCMQATQFPLTFGGGTKVEIK
≤ 0.925 | ≥ 192 | – | 202 | – | H4H1818N (antibody, human IgG4 S228P, V domains shown, human IgG4(S108P) form of H2M1818N) VH: RLQLVESGGGLVKPGGSLKLSCAASGFTISDYYMSWIRQAPGKGLEWVSYIGGSGSTIYYADSVKGRFTISRDNAKNSLYLQMNSLRAEDTAVYYCAREDADSYYYYGMDVWGQGTTVTVSS VL: not shown
≤ 4.37 | ≥ 192 | 231 | 214 | – | H4H1742P (antibody, human IgG4 S228P, V domains shown) VH: EVQLVESGGGLVQPGGSLRLSCAASGFTFSNYVMNWVRQAPGKGLEWVSVISGSGGSTHYADSVKGRFTISRDNSKDALYLQMNSLRAEDTAVYYCAKGPLEAYYYYNGMDVWGQGTTVTVSS VL: DIQLTQSPSFLSASVGDRVTITCWASQAISSYLAWYQHKPGRAPKLLIYSTSTLQSGVPSRFSGSGSGTEFTLTISSLQPEDFATYYCQQLNSYPTFGQGTKLEIK
– | – | 45 | 23 | – | H4H1719P (antibody, human IgG4 S228P, V domains shown) VH: EVQLVESGGGLVQPGRSLRLSCVASGFTFQDYAMHWVRQAPGKGLEWVSGINWISDDMGYADSVMGRFTISRDNAKNSLYLQMDSLRAEDTALYYCAKDKGLRFLDYVMDVWGQGTTVTVSA VL: DIVMTQSPLSLPVTPGEPASISCRSTQSLLHRNGHNYLHWYLHKPGQSPQLLIHLGSNRASGVPDRFSGSGSGTDFTLKISRVEAEDVGVYYCMQALQTPYTFGQGTKLEIK
– | – | 150 | 152 | – | H4H1738P (antibody, human IgG4 S228P, V domains shown) VH: EVQLVESGGALVKPGGSLRLSCAVSGFTFINDWMNWVRQAPGKGLEWVGRIKSTTDGGTTDDAAPVKGRFTISRDDSKNTLYLQMNSLKTEDTAVYYCTRDRNRQRNYFYDGMDVWGQGTTVTVSA VL: DIVMTQSPVSLPVTPGEPASISCRSSQRLLHNNGNNYLDWYLQKPGQSPQLLIYLGSNRASGVPDRFSGSGSGTDFTLKVSRVEAEDVGVYYCMQALQTPYTFGQGTKLEIK
– | – | – | 235 | – | H4H1817N (antibody, human IgG4 S228P, V domains shown, human IgG4(S108P) form of H2M1817N) VH: QVQLQQWGAGLLKPSETLSLTCAVSGGSFSDYFWTWIRQPPGKGLEWIGEISHSGRTNYNPSLKSRVTISVDTSMSQFSLKMTSVTAADSAVYYCARDYPNWVFDYWGQGTLVTVSS VL: EIELTQSPGTLSLSPGEGATLSCRASQSVFNSYLAWYQQKPGQAPRLLIYGASRRATGIPDRFSGSGSGTDFTLTISRLEPGDFAVYFCQQYGNSPLTFGGGTKVEIK
≤ 13.8 | ≥ 192 | 626 | 589 | – | H4H1750P (antibody, human IgG4 S228P, V domains shown) VH: QVQLVESGGGVVQPGRSLRLSCVASGFTFSNYGMHWVRQAPGKGLEWVAVISYDGNNDLYSDSVKGRFTISRDNAKNALSLQMTSLRAEDTAVYYCARDSTMTPYYYHGIDVWGQGTTVTVSA VL: DIQMTQSPSSLSASVGDRVTITCRASQDIRNDLGWYQQKPGKAPKRLIYAASSLQSGVPSRFSGSGSGTDFTLTISSLQPEDFATYYCLQHNSYPPTFGQGTKVEIK
– | – | 85 | 18 | 207 | H4H1725P (antibody, human IgG4 S228P, V domains shown) VH: QVQLVQSGAEVKKPGASVKVSCKASGYTFTGYYMHWVRQAPGQGLEWMGWIKPKSGGTNYVQKFQGRVTMTRDTSINTAYMELNNLKSDDTAVYYCATGGSQDASDFWGQGTMVTVSS VL: DIQMTQSPSSVSASVGGRVTITCRASQDISIWLAWYQQKPGKAPNLLIYAASSLQSGVPSRFSGSGSGTDFTLTISSLQPEDFATYYCQQADSFPLTFGGGTKVEIK
